Data reported in the nanobody polyreactivity screen of Harvey et al. (2022).

Assay: yeast display, Sf9 membrane polyspecificity reagent, FACS + sequencing; frameworks hold sequencing errors
Summary of the method: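 After 36–48 hours of galactose induction, yeast (Saccharomyces cerevisiae BJ5465) displaying a synthetic nanobody library were stained at 4 °C for 1 hour with 10% biotinylated, detergent-solubilized Sf9 membrane reagent. Streptavidin microbeads enriched the stained cells before FACS sorting into low and high (top ~1%) gates on anti-HA and streptavidin fluorescence. Each clone's polyreactivity label reflects its gate of origin.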

Sequence	polyreactivity (PSR sort gate)
QVQLVESGGGLVQAGGSLRLSCAASGNIFRRYAMGWYRQAPGKERELVAAITWSGGSTYYADSVKGRFTISRDNAKNTVYLQMNSLKPEDTAVYYCAARRFWHYGYPGAYIGFGYWGQGTQVTVSS	high polyreactivity
QVQLVESGGGLVQAGGSLRLSCAASGSIFLYNAMGWYRQAPGKERELVAAISSSSDRTYYADSVKGRFTISRDNAKNTVYLQMNSLKPEDTAVYYCNVVYIGWRKYEYWGQGTQVTVSS	high polyreactivity
QVQLVESGGGLVQAGGSLRLSCAASGFTFYSYAMGWYRQEPGKEREFVAAITSRGGSTYYADSVKGRFTISRDNAKNTVYLQMNSLKPEDNAVYYCAAYAGYSDQARYYYWGQGTQVTVSS	high polyreactivity
QVQLVESGGGLVQAGCTLRLSSAASGRIYRYNVMGWSRQAPGKESELVAGISSGGSTNYADSVKGRFTISRDNAKNTVYLQMTSLKPEDTAVYFCSKRWLNAKPYGQAMYSWGQGTQVTVSS	high polyreactivity
QVQLVESGGGLVQAGGSLRLSCAASGSIFQDNTMGWYRQAPGKESELVAAISWSATSTYYADSVKGRFTISRDNAKNTVYLQMNSLNPEDTAVYYCAARYWLFPPGYNYWGQGTQVNVSS	high polyreactivity
QVQLVESGGGLLQAGGSLRLSCAASGSIFYINAKGWYRQAPGKERELVAAITSDGSTYYADSVKGRFTISRDYANYTVYLQLNSLKPEYSAVYYCAADLTSDQYLYYWYWFSSWGQGTQGTVSS	low polyreactivity
QVQLVESRGGLVQAEGSLRLSCAASGYTFTSNDMGWYRQAPGKERELVAAITWSGGTTYYADSVKGRFTISRDNAKNTVYLQMNSLKPEDTSVYYFAADVSLVYPYSYRYYYWGQGTQVTVSS	low polyreactivity
QVQHVESGGGLVQAGGSLRLSCAASGFTFSVYVLGWSRQAPGKERELVAAITWSGGSTYYADSEQGRITISRDHAKNTVYLQMNSQKPQETAVYYCAAQAFSPHYGWFYYWGQGTQVTVSS	high polyreactivity
QVQLVESGGGLVQAGGSLRLSCAASGITLVYYVMGWYRQAPGKERELVAAISSGGITYYADSVKGRFTISRDNAKNTVYLQMNSLKPEDTAVYYCAAESRQYVRTYGYWGQGTQVTVSS	low polyreactivity
QVQLVESGGGLVQAGGSLRLSCAASGRIFYRYALGWYRQAPGKERELVAVITSSGGRTYYADSVKGRFTISRDNAKNTVYLQMNSLKPEDTAVYYCAATPVGSHYGNYYWGQGTQVTVSS	high polyreactivity
QVQLVESGGGLVQAGGSLRLSCAASGSIFVWYVMGWSRPAAGKERELVAAITWSAARTYYADSVKGRFTISRDNAKNTVYLQMNSLKPEDTAVYYCAADHVSYQPSSRIFDYWGQGTQVTVSS	low polyreactivity
QVQIVESGGGLVQAGGSLRLSFAASGSILYINAMGWYRQAPGKERELVAAISWSGDSTNYADSVKGRFTISRDNAKNTVYLQMNSLKPEDTAVYYCNADCDVVGVAHDYWGQGTQVTVSS	low polyreactivity
QVQHVESGGGLVQAGGSLRLSCAASGSTFDRYAMGWNRQAPGKERELVAAISGGGGSTYYADSVKGRFTISRDNAKNTVYLQMNSLKPEDTAVYYCAKLLARGNRYDSWGQGTQLTVSS	high polyreactivity
QVQLVESGGGLVQAGGSLRLSFAASGSIFLFNAMGWYRQAPGKERELVAAITSPTARTYYADSVKGRFTISRDNAKNTVYLQMNSLKPEDTAVYYCAARYRYAYGYGRGYSWGQGTQVTVSS	high polyreactivity
QVQLVESGGGLVQAGGSLRLSCAASGRTFRTYVMGWYRQAPGKERELVAAITGSGGSTYYADSVKGRFTISRDNAKNTVYLQMNSLKPEDTAVYYCAADYRWDYYWYDYAEYDYWGQGTQVTVSS	low polyreactivity
QVQLVDSGGGLVQAGGSLRLSCAASGSTFITNTMGWDRQSPGKDRELVAAISQSGTRTYYANSVKGRFTISRDNAKNTVYLQMNSLKPEDTAVYYCAADRQRYTSSSRKGLGYCGQGTQVTVSS	high polyreactivity
QVQLVESGGGLVQAGGSLRLSCAASGRIFWANAMGWYRQAPGKERELVAAISKSGDSTYYADSVKGRFTISRDTAKNTVYLEMSWLKPEDTAVYSCAADEYASRFSFKYDYWGQGTQVTVSS	high polyreactivity
QVQLVESGGGLVQAGGSLRLSCAASGSIFPTYAMGCYRQAPGKERELVAAIRSGSNTYYADSVKGRFTISRDNAKNTVYLQMNSLKPEDTAVYYCNVGPQRKYPGRRTVPFGYWGQGTQVTVSS	low polyreactivity
QVQIEESVGDLVQAGGSLRLICAASGRTFPVYDMGWYRQAPGKERELVAAISRRAVRTYYADSVKGRFTISRDIAKNTVYLQMNSLKPEDTAVYYCNAVLRKITYDYWGQGTQVTVSS	high polyreactivity
QVQLVESGGGLVQAGGSLRLSCAASGSTFRGYVMGWYRQAPGKERELVAAISRSGTSTYYADSVKGRFTISRDNAKNTVYLQMNSLKPEDTAVYYCAAQLYGHGEDYWGQGTQVTVSS	high polyreactivity
QVQLVESGGGLVQSGGSLRLSCAASGRIFRYYAMGSYRQAPGKERELVSAITRGGSTNYADSVKGRFTISRDNAKNTVYLQMNSLKPEDTADYYCATRQSWYPRWMDYWGQGSQVTVSS	high polyreactivity
QVQLVESGGGLVQAGGSLLLSCAASRSTFDTNAMGWYSQAPGKERELVAAIRWSTGNTYYADSVKGRFTISRDNAKKTDYLQKNSLKPEDTAVYYCAAYTGKHYKEGYWGQVTQVTVSS	low polyreactivity

Sequence	polyreactivity (PSR sort gate)
QVQLVESGGGLVQAGGSLRLSCAASGRTFKYYAMGWARQAPGKERELVATISYNGASTYYADSVKGRFTSSRDNAKNSVYLQMNSQKPEDTAVYYCAAAYLWRGRLGYWGQGTQVTVSS	high polyreactivity
QVQLVESGGGLVQAGGSLRLSCAASGRIFQRNAMGWYRLAPGKERELVAAITSTGVRTYYADSVKGRFTISRDNAKNTVYLQLNSLKPEDTAVYYCAVRGERRYIYDYWGQGTQVTVSS	high polyreactivity
QVQLVESVGGLVQAGGSLRLSCAASGSTFGHNAMGWYRQAPGKERELVAVITSGGSTYYADSVKGRFTISRDNAKNTVYLQMNSLKPEDTAVYYCAKRYWSRGSKSSPYAYDYWGQGTQVTVSS	high polyreactivity
QVQLVESGGGLVQAGCSLRLICAASGSIFDEYAMGWYRKAPGKERELVAAITSNGGSTYADSVKGRFTISRDNAKNTVYLQMNSLKPEDTAVYYCAADYFVYWYYGYGYWGQGTQVTVSS	low polyreactivity
QVQLVESGGGLVQAGGSLRLSCAASGNIFPDYAMGWYRQAPGKERELVAAISWSGGSTYYADSVKGRFTISRDNAKNTVYLQMNSLKPEETAVYYCAAGRRGRSYNRIRYDYWGQGTQVTVSS	high polyreactivity
QVQLVESGGGLFQAGGSLRLSCSASGNTFVPYDMGWYRQAPGKERELVAGITSGGSTYYADSVKGRFTISRDNAKNTVYLQMNSLKPEDTAVYYCAADYYLWVYWYDYWGEGTQVTVSS	high polyreactivity
QVQLVESGGGLVQAGGSLRLSCAASGRIFNIYALGWYRQAPGKERELVAAISGSGSTYYADSVKGRFTISRDNAKNTVYLQMNSLKPEDTAVYYCAARSLVRYYHNANYYPYYYWGQGTQVTVSS	high polyreactivity
QVQLVESGGGLVQAGGSLSLSCAASGSIFLYNAMGWYRPAPGKERELVAAISKSGGSTYYADSVKGRFTISRDNAKNTVYLQMNSLKPEDTAFYYCAAGYGRRIRYGSEYDYWGQGTQVTVSS	low polyreactivity
QVQLVESGGGLVQAGGSLRLSCAASGSIFSQYAMGWSRQAPGKERELVAAISSSGDSTNYADSVKGRFTISRDNAKNTVYLQMNSLKPEDTAVYYCAADFDWFIWGYDYWGQGTQVTVSS	low polyreactivity
QVQLVESGGGLVQAGGSLRLSCAASGITFYRYAMGWYRQAPGKDRELVAVISSGGSTNYADSVKGRFTISRDNAKNTVYLQMNSLKPEDTAVFYCNAVSTRFRVRTSDYWGQGTKVTVSS	high polyreactivity
QVQLVESGGGLVQAGGSLRLSCAASGSIYYYVMGWYRQAPGKERELVAAISRSTGRTYYADSVKGRFTISRDNAKNTVYLQMNSLKPEDTAVYYCNKVVPHKPPTMDYWGQGTQVTVSS	high polyreactivity
QVQLVESGGGLVQAGGSLRLSCAASGFTFAYYAMGWYRPAPGKERELVAAITSGGRTNYADSVKGRFTISRDNAKNTVYLQMNSMKPEDTAVYYFAKGYRRVYGPLYYWGQGTQVTVSS	low polyreactivity
QVQLVESGGGLVQAGGSLRLSCAASGRTLNAYAMGWYRHAPGKERELVAAITWDDGSTYYAHSVKGRFTISRDNAKNTVSLQMNSLKPEDSAVYYCAAYAYNAIEYGYWGQGTQVNVSS	low polyreactivity
QVQLVESGGGLVQAGGSLRLSCAASGIIFHYYAMGWYRQAPGKERDLVAAISGSGGSTYYADSVKGRFTISRDNAKNTVFLQMNSLKPEDTAVYYCAAILWGGGGYWGQGTQVTVSS	high polyreactivity
QVQLVESGGGLVQAGGSLRLSCAASGFTFPRYAMVWYRQAPGKERELVAAINRGGSTYYADSVKGRFTISRDNAKNTVYLQMNSLKPEDTAVYYCARARPVDTVGYVTVSGDYEFDYWGQGTQVTVSS	low polyreactivity
QVQLVESGGGLVQAGGSLRLSCAASGSIFRPYAMGWYRQAPGKERVLVAAISRRGGSTYYADSVKGRFTISRDNAKNTVYLQMNSLKPEDTAVYYCAADHSRPSPYGYGYWGQGTQVTVSS	high polyreactivity
QVQLVESGGGLVQAGGSLRLSCAASGLIFRYYAMGWYRQAPGKERELVAAITWRGGRTYYADSVKGRFTISRDNAKNTVYLQMNSLKPEDTAVYYCNKDGPYQVITYDYWGQGTQVTVSS	high polyreactivity
QVQLVESGGGLVQAGGSLRLSCAASGFTFYRNVMGWYRQAPGKERELVAAISSRGGSTYYADSVKGRFTISRDNAKNTVYLQMNSLKPEDTAVYYCNKARYTVISYDEYDYWGQGTQVTVSS	high polyreactivity
QVQLVDSGGGLVQAGGSLRLSCAASGSIFDFYAMGWYRQAPGTERELVAAINSGGSTNYADSVKGRFTISRDNAKNTVYLQMNSLTPEDTAVYYCAARHPPYRGGYWGQGTQVTVSS	low polyreactivity
QVQLVESGGGLVQAGGSLSLSCAASGSIFDYNAMGWYRQAPGKEREVVAAIDGGSTYYADSVKGRFTISRDNAKNNVYLQMNSLKPEDTAVDYCAAEGFQADTYYWPMESWGQGTQVTVSS	low polyreactivity
QVQLVESGGGLVQAGGSLRLSCAASGFIFRYYAMGWYRQAPGKERELVARIRSSGGSTYYADSVKGRFTISRDNAKKTVYLKMNSLKPEDTAVYYCDTVSYITYYGGYGYWGQGTQVTVSS	high polyreactivity
